Data: the supplement of paper PMC9732359
± gives the uncertainty stated by the source.

Experiment: protein stability index of a GFP-peptide fusion (yeast GPS) (PSI 1-4); higher = more stable; sorted into four equal gates, so the index is relative within each strain
Outline: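 Tiled yeast protein peptides of 17 residues were each joined downstream of GFP, on plasmids that also express Cherry. The pooled library was maintained in yeast, and mid-log cultures in leucine-free medium were sorted into four equal gates on the GFP/Cherry ratio. Plasmids from every gate were amplified by PCR and sequenced on Illumina, with barcodes linking reads to strains. The protein stability index of a peptide is its gate-number-weighted read frequency summed over the gates.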

## DRETALDFIGRRGTALG [RPB2]
doa10∆
  protein stability index: 2.23 ± 0.072
pdr5∆
  protein stability index: 2.07 ± 0.065
san1∆
  protein stability index: 2.22 ± 0.059
ubr1∆
  protein stability index: 2.14 ± 0.066

## DTKLRLEKSKNECQRLQ [YIL149C/MLP2]
doa10∆
  protein stability index: 2.57 ± 0.055
pdr5∆
  protein stability index: 2.85 ± 0.059
san1∆
  protein stability index: 2.54 ± 0.056
ubr1∆
  protein stability index: 2.87 ± 0.04

## ILQNEHDYWNKIMQSIS [SRB4]
doa10∆
  protein stability index: 2.14 ± 0.079
pdr5∆
  protein stability index: 2.37 ± 0.062
san1∆
  protein stability index: 1.92 ± 0.11
ubr1∆
  protein stability index: 2.35 ± 0.082

## SWEEGTRQSSRNFDTHE [MCD1]
doa10∆
  protein stability index: 3.26 ± 0.12
pdr5∆
  protein stability index: 3.59 ± 0.13
san1∆
  protein stability index: 3.31 ± 0.1
ubr1∆
  protein stability index: 3.38 ± 0.15

## AVFIVPKILIREHERVI [SWP82]
doa10∆
  protein stability index: 1.7 ± 0.085
pdr5∆
  protein stability index: 2.06 ± 0.097
san1∆
  protein stability index: 1.69 ± 0.15
ubr1∆
  protein stability index: 2.1 ± 0.19

## MVLRNVMEYDVKFYEIF [SRB8]
doa10∆
  protein stability index: 1.88 ± 0.081
pdr5∆
  protein stability index: 2 ± 0.099
san1∆
  protein stability index: 1.62 ± 0.099
ubr1∆
  protein stability index: 2.1 ± 0.067

## QFSQLNDPNAAVNMTQN [MED6]
doa10∆
  protein stability index: 2.71 ± 0.089
pdr5∆
  protein stability index: 2.91 ± 0.1
san1∆
  protein stability index: 2.86 ± 0.039
ubr1∆
  protein stability index: 2.62 ± 0.06

## EAIDGNGEIKGENIDAD [SNF2]
doa10∆
  protein stability index: 3.53 ± 0.14
pdr5∆
  protein stability index: 3.4 ± 0.071
san1∆
  protein stability index: 3.48 ± 0.078
ubr1∆
  protein stability index: 3.25 ± 0.12

## KLITTYISLLKLQGLYE [YDL116W/NUP84]
doa10∆
  protein stability index: 2.23 ± 0.059
pdr5∆
  protein stability index: 1.82 ± 0.061
san1∆
  protein stability index: 1.66 ± 0.072
ubr1∆
  protein stability index: 1.72 ± 0.052

## MHALKNRSEQNGQEQQG [RGR1]
pdr5∆
  protein stability index: 3.06 ± 0.21
ubr1∆
  protein stability index: 3.06 ± 0.21

## EKITQISLLCKNFKGIE [PCI8]
doa10∆
  protein stability index: 2.41 ± 0.049
pdr5∆
  protein stability index: 2.55 ± 0.039
san1∆
  protein stability index: 2.7 ± 0.037
ubr1∆
  protein stability index: 2.5 ± 0.035

## AFRRIMISEVPSVAAEY [RPC40]
doa10∆
  protein stability index: 1.35 ± 0.052
pdr5∆
  protein stability index: 1.49 ± 0.056
san1∆
  protein stability index: 1.51 ± 0.079
ubr1∆
  protein stability index: 1.25 ± 0.049

## IEDEDEPFNAGIKYHAT [SMC1]
doa10∆
  protein stability index: 3.04 ± 0.083
pdr5∆
  protein stability index: 2.82 ± 0.1
san1∆
  protein stability index: 2.9 ± 0.062
ubr1∆
  protein stability index: 2.89 ± 0.05

## SASLKKIQQHNTILNSS [BRR2]
doa10∆
  protein stability index: 2.65 ± 0.052
pdr5∆
  protein stability index: 2.93 ± 0.055
san1∆
  protein stability index: 2.79 ± 0.032
ubr1∆
  protein stability index: 2.81 ± 0.041

## MFKLGNFESPVLKELSR [YLR018C/POM34]
pdr5∆
  protein stability index: 3.37 ± 0.23
san1∆
  protein stability index: 2.85 ± 0.15
ubr1∆
  protein stability index: 2.66 ± 0.16

## VSDDESNGEVLEVGKNN [RPN14]
doa10∆
  protein stability index: 3.19 ± 0.1
pdr5∆
  protein stability index: 2.99 ± 0.16
san1∆
  protein stability index: 3.07 ± 0.16
ubr1∆
  protein stability index: 3.24 ± 0.056

## ISSSTQCLRFLKETVIP [POP6]
doa10∆
  protein stability index: 1.52 ± 0.074
pdr5∆
  protein stability index: 1.87 ± 0.11
san1∆
  protein stability index: 1.26 ± 0.22
ubr1∆
  protein stability index: 2.27 ± 0.073

## LPKIIQLQGPQWMNEMV [SOH1]
doa10∆
  protein stability index: 3.15 ± 0.088
pdr5∆
  protein stability index: 3.29 ± 0.064
san1∆
  protein stability index: 3.14 ± 0.066
ubr1∆
  protein stability index: 3.06 ± 0.07

## WGGFPLDISVFLLEKAG [TAF14]
doa10∆
  protein stability index: 3.2 ± 0.11
pdr5∆
  protein stability index: 3.38 ± 0.067
san1∆
  protein stability index: 3.26 ± 0.06
ubr1∆
  protein stability index: 3.15 ± 0.075

## EYLTLNDFNDLNIDWST [MED2]
doa10∆
  protein stability index: 2.83 ± 0.06
pdr5∆
  protein stability index: 2.92 ± 0.062
san1∆
  protein stability index: 2.6 ± 0.053
ubr1∆
  protein stability index: 2.51 ± 0.043

## LSSIEASLKIKNATDLQ [SMC3]
doa10∆
  protein stability index: 1.84 ± 0.064
pdr5∆
  protein stability index: 2.06 ± 0.091
san1∆
  protein stability index: 2.56 ± 0.12
ubr1∆
  protein stability index: 2.4 ± 0.077

## AAGIWTCSCCKKTVAGG [RPL43A]
doa10∆
  protein stability index: 2.42 ± 0.13
pdr5∆
  protein stability index: 3.17 ± 0.11
san1∆
  protein stability index: 3.02 ± 0.097
ubr1∆
  protein stability index: 2.99 ± 0.074

## LATDVTTLNEMFRYKTN [PUP3]
doa10∆
  protein stability index: 1.85 ± 0.14
pdr5∆
  protein stability index: 2.72 ± 0.11
san1∆
  protein stability index: 1.91 ± 0.077
ubr1∆
  protein stability index: 2.53 ± 0.1

## KNFSPTKRVEKPQLKFK [RRP6]
doa10∆
  protein stability index: 2.33 ± 0.093
pdr5∆
  protein stability index: 2.17 ± 0.1
san1∆
  protein stability index: 2.39 ± 0.1
ubr1∆
  protein stability index: 3.21 ± 0.075

## SPQAVSSFVRQELAKSI [PRE1]
doa10∆
  protein stability index: 2.33 ± 0.11
pdr5∆
  protein stability index: 2.33 ± 0.072
san1∆
  protein stability index: 2.1 ± 0.19
ubr1∆
  protein stability index: 2.31 ± 0.059

## NATHDEDEFIVQHDQIL [SWP82]
doa10∆
  protein stability index: 2.93 ± 0.036
pdr5∆
  protein stability index: 3.13 ± 0.032
san1∆
  protein stability index: 2.96 ± 0.032
ubr1∆
  protein stability index: 3.044 ± 0.023

## GCVSYSPAALKQLASLK [YMR153W/NUP53]
doa10∆
  protein stability index: 1.7 ± 0.066
pdr5∆
  protein stability index: 2.22 ± 0.07
san1∆
  protein stability index: 2.08 ± 0.12
ubr1∆
  protein stability index: 2.62 ± 0.078

## IQQLISQFLKRVHANLQ [SNF11]
doa10∆
  protein stability index: 1.63 ± 0.051
pdr5∆
  protein stability index: 1.61 ± 0.044
san1∆
  protein stability index: 1.52 ± 0.068
ubr1∆
  protein stability index: 1.54 ± 0.038

## LVLYDAENDVIEATDLG [BRR2]
doa10∆
  protein stability index: 3.29 ± 0.13
pdr5∆
  protein stability index: 3.26 ± 0.12
san1∆
  protein stability index: 3.45 ± 0.092
ubr1∆
  protein stability index: 3.24 ± 0.066

## QTLLANSDHAKFTIEPG [SNF2]
doa10∆
  protein stability index: 2.35 ± 0.059
pdr5∆
  protein stability index: 2.33 ± 0.065
san1∆
  protein stability index: 2.41 ± 0.1
ubr1∆
  protein stability index: 2.37 ± 0.063

## FDIIEESFKGLQPFWFR [ECM29]
doa10∆
  protein stability index: 2.63 ± 0.11
pdr5∆
  protein stability index: 2.58 ± 0.15
san1∆
  protein stability index: 2.35 ± 0.17
ubr1∆
  protein stability index: 2.21 ± 0.11

## TNVEDPLAKKQTVRLIK [SIR2]
doa10∆
  protein stability index: 2.82 ± 0.077
pdr5∆
  protein stability index: 3.08 ± 0.067
san1∆
  protein stability index: 2.77 ± 0.056
ubr1∆
  protein stability index: 2.96 ± 0.06

## LIIQYPPNNARRTYNTL [ISW2]
doa10∆
  protein stability index: 2.09 ± 0.037
pdr5∆
  protein stability index: 2.49 ± 0.042
san1∆
  protein stability index: 2.43 ± 0.052
ubr1∆
  protein stability index: 2.33 ± 0.031

## GGNNNNNSTGIANDNVI [SWI1]
doa10∆
  protein stability index: 2.87 ± 0.057
pdr5∆
  protein stability index: 3 ± 0.053
san1∆
  protein stability index: 2.94 ± 0.05
ubr1∆
  protein stability index: 3.14 ± 0.044

## QQQQQQQQQQQQQQQQH [GAL11]
doa10∆
  protein stability index: 2.68 ± 0.033
pdr5∆
  protein stability index: 2.8 ± 0.029
san1∆
  protein stability index: 2.698 ± 0.025
ubr1∆
  protein stability index: 2.878 ± 0.024

## SVNPAMLPGSSNGGGKV [RPO31]
doa10∆
  protein stability index: 2.98 ± 0.071
pdr5∆
  protein stability index: 3.36 ± 0.12
san1∆
  protein stability index: 3.07 ± 0.08
ubr1∆
  protein stability index: 3.08 ± 0.06

## VSLPEGSFKRVKPQYDE [BRR2]
doa10∆
  protein stability index: 3.16 ± 0.15
pdr5∆
  protein stability index: 3.09 ± 0.12
san1∆
  protein stability index: 3.13 ± 0.11
ubr1∆
  protein stability index: 2.95 ± 0.14

## PVDHPHGGGNHQHIGKA [RPL2A]
doa10∆
  protein stability index: 3.11 ± 0.11
pdr5∆
  protein stability index: 3.31 ± 0.085
san1∆
  protein stability index: 3.09 ± 0.051
ubr1∆
  protein stability index: 3.22 ± 0.071

## QIVPYIEKLTDGHLRAP [BRR2]
doa10∆
  protein stability index: 3.04 ± 0.052
pdr5∆
  protein stability index: 3.1 ± 0.043
san1∆
  protein stability index: 3.12 ± 0.037
ubr1∆
  protein stability index: 3.15 ± 0.051

## RLFIKPGQKMSLFSHRK [BRN1]
doa10∆
  protein stability index: 2.74 ± 0.14
pdr5∆
  protein stability index: 3.06 ± 0.11
san1∆
  protein stability index: 3.07 ± 0.13
ubr1∆
  protein stability index: 3.02 ± 0.12

## PLKRAIWLIKCCYFIEW [SRB8]
doa10∆
  protein stability index: 2.56 ± 0.1
pdr5∆
  protein stability index: 2.12 ± 0.074
san1∆
  protein stability index: 2.85 ± 0.097
ubr1∆
  protein stability index: 2.77 ± 0.071

## GSESDDSEGSIKQTSDE [ECM29]
doa10∆
  protein stability index: 3.32 ± 0.1
pdr5∆
  protein stability index: 3.57 ± 0.083
san1∆
  protein stability index: 3.32 ± 0.068
ubr1∆
  protein stability index: 3.42 ± 0.062

## TTLKSVTIASEIYYDPD [RPO21]
doa10∆
  protein stability index: 2.75 ± 0.1
pdr5∆
  protein stability index: 2.45 ± 0.085
san1∆
  protein stability index: 2.82 ± 0.099
ubr1∆
  protein stability index: 2.24 ± 0.055

## EDEGEELTDEYLAENPD [PRP8]
doa10∆
  protein stability index: 3.43 ± 0.12
pdr5∆
  protein stability index: 3.39 ± 0.13
san1∆
  protein stability index: 3.33 ± 0.12
ubr1∆
  protein stability index: 3.34 ± 0.092

## YGKLRNGMFCQVPSSLI [RRP4]
doa10∆
  protein stability index: 2.22 ± 0.066
pdr5∆
  protein stability index: 2 ± 0.1
san1∆
  protein stability index: 2.4 ± 0.09
ubr1∆
  protein stability index: 2 ± 0.072

## GNVVMDIGKGAETTFLQ [RPC53]
doa10∆
  protein stability index: 3.26 ± 0.2
san1∆
  protein stability index: 3.02 ± 0.22
ubr1∆
  protein stability index: 3.29 ± 0.083

## HLRKLLDGELDFDDFLK [RET1]
doa10∆
  protein stability index: 3.04 ± 0.16
pdr5∆
  protein stability index: 2.95 ± 0.1
san1∆
  protein stability index: 2.81 ± 0.12
ubr1∆
  protein stability index: 2.99 ± 0.092

## NPFEDDMDGVDFNQAFE [BRN1]
doa10∆
  protein stability index: 3.31 ± 0.05
pdr5∆
  protein stability index: 3.21 ± 0.064
san1∆
  protein stability index: 3.39 ± 0.038
ubr1∆
  protein stability index: 3.3 ± 0.049

## DKNELQQMIITRLKSLL [SIR3]
doa10∆
  protein stability index: 2.23 ± 0.058
pdr5∆
  protein stability index: 2.04 ± 0.05
san1∆
  protein stability index: 2.12 ± 0.063
ubr1∆
  protein stability index: 2.08 ± 0.037

## LQHELMISIIKLVTNVV [YML103C/NUP188]
doa10∆
  protein stability index: 1.54 ± 0.071
pdr5∆
  protein stability index: 1.8 ± 0.048
san1∆
  protein stability index: 1.56 ± 0.18
ubr1∆
  protein stability index: 1.57 ± 0.038

## EYFGGESPVDVQSQVDS [FAS1]
doa10∆
  protein stability index: 3.01 ± 0.14
pdr5∆
  protein stability index: 3.38 ± 0.1
san1∆
  protein stability index: 3.19 ± 0.11
ubr1∆
  protein stability index: 3.07 ± 0.092

## QLYFKKKVNYKVTSYDI [ISW2]
doa10∆
  protein stability index: 2.63 ± 0.058
pdr5∆
  protein stability index: 2.56 ± 0.052
san1∆
  protein stability index: 2.7 ± 0.07
ubr1∆
  protein stability index: 2.72 ± 0.047

## KSHSTVSSSSRHHRKTE [ISW2]
doa10∆
  protein stability index: 2.7 ± 0.055
pdr5∆
  protein stability index: 2.69 ± 0.043
san1∆
  protein stability index: 2.14 ± 0.052
ubr1∆
  protein stability index: 2.88 ± 0.041
